# Test results taken from PMC2953525, “Subtle Alterations in PCNA-Partner Interactions Severely Impair DNA Replication and Repair” (PLoS Biology, 2010).
# Where a chain is given by its changes, count along the chain named.
# B1: pol30-Rad27E31: PCNA mutant evolved for Rad27, IDCL sequence DGDYDVLKIREL (protein)
# chain: MLEAKFEEASLFKRIIDGFKDCVQLVNFQCKEDGIIAQAVDDSRVLLVSLEIGVEAFQEYRCDHPVTLGMDLTSLSKILRCGNNTDTLTLIADNTPDSIILLFEDTKKDRIAEYSLKLMDGDYDVLKIRELQYDSTLSLPSSEFSKIVRDLSQLSDSINIMITKETIKFVADGDIGSGSVIIKPFVDMEHPETSIKLEMDQPVDLTFGAKYLLDIIKGSSLSDRVGIRLSSEAPALFQFDLKSGFLQFFLAPKFNDEE
# modifications: left off: Gal4 activation domain, end not stated, kept
# B2: pol30-Rad27L1: PCNA mutant evolved for Rad27, two-residue deletion, IDCL sequence D––VDILKIGEL (protein)
# chain: MLEAKFEEASLFKRIIDGFKDCVQLVNFQCKEDGIIAQAVDDSRVLLVSLEIGVEAFQEYRCDHPVTLGMDLTSLSKILRCGNNTDTLTLIADNTPDSIILLFEDTKKDRIAEYSLKLMDVDILKIGELQYDSTLSLPSSEFSKIVRDLSQLSDSINIMITKETIKFVADGDIGSGSVIIKPFVDMEHPETSIKLEMDQPVDLTFGAKYLLDIIKGSSLSDRVGIRLSSEAPALFQFDLKSGFLQFFLAPKFNDEE
# modifications: left off: Gal4 activation domain, end not stated, kept
# B3: pol30-Rad27L2: PCNA mutant evolved for Rad27, two-residue deletion, IDCL sequence D––VDTLKITEL (protein)
# chain: B2 chain with I123T, G127T
# modifications: left off: Gal4 activation domain, end not stated, kept
# Columns and labels:
# Msh6 = assay: Yeast two hybrid (Y2H) analysis of PCNA-partner interaction; assay type: binding; settings: YRG2 strain, growth on selective agar plates lacking histidine; growth similar to WT PCNA denoted as 1
# Procedure: (§1) For the Y2H assay, we used the YRG2 host strain, shown to be highly efficient in coupling the strength of protein-protein interactions with growth on media lacking histidine. Selected PCNA mutants were characterized for their ability to bind each of 12 main PCNA partners to obtain specificity profiles (Table 1, Table S1, and Figures S4–S5). […] However, in some cases a strong trade-off between the bindings of different partners was observed.
# (§2) Y2H analysis was performed using the Yeast Two Hybrid Phagemid vector kit (Stratagene), following the manufacturer's instructions. The pAD-PCNA-WT/mutant plasmids were used as bait while plasmids encoding 12 different PCNA partners (Table 1 and Table S1) were used as prey. The YRG2 host strain (Stratagene) was cotransformed with pAD-PCNA WT/mutant and pBD-partner plasmids in all possible combinations using the LiAC method. Single transformants were grown in liquid SC-Leu-Trp to O.D600 10, washed twice with DDW, and diluted to an initial OD600 of 0.3. A series of 10-fold serial dilutions was then spotted onto selective SC-Leu-Trp-His plates and incubated at 30°C for 3 d. For quantitative Y2H, the generation time of the indicated mutants and their respective partners were calculated from their growth curves in liquid SC-Leu-Trp-His media. Cells were grown overnight in SC-Leu-Trp, washed twice with ddH2O, and diluted by a factor of 1∶50 into 10 ml of pre-warmed SC-Leu-Trp-His. O.D600 measurements of the cultures were taken at the indicated time; the generation time (τ) was calculated from the growth curves according to the equation ODt = OD0×2^t/τ. The generation time calculated for each culture is an average of at least 3 independent experiments.
# Pol32 = assay: as above; assay type: binding; settings: YRG2 strain, growth on selective agar plates lacking histidine; growth similar to WT PCNA denoted as 1
# Procedure: as §1, §2
# Rad27 = assay: as above; assay type: binding; settings: footnote c: generation time in liquid selective media lacking histidine relative to cells expressing WT PCNA; average of at least 3 independent experiments
# Procedure: as §1, §2
# Rad30 = assay: as above; assay type: binding; settings: YRG2 strain, growth on selective agar plates lacking histidine; growth similar to WT PCNA denoted as 1
# Procedure: as §1, §2
# Ung1 = assay: as above; assay type: binding; settings: YRG2 strain, growth on selective agar plates lacking histidine; growth similar to WT PCNA denoted as 1
# Procedure: as §1, §2
# Apn2 = assay: as above; assay type: binding; set-up: key: ++: major increase in growth; +: moderate increase in growth; similar growth as the WT PCNA-expressing cells; -: minor decrease in growth; --: moderate decrease in growth; ---: major decrease in growth; settings: spotting onto selective agar plates; PCNA fused to AD, partner to BD
# Procedure: as §2
# (§3) Table S1: Yeast two hybrid analysis of binding of selected PCNA mutants with seven additional partners not described in Table 1 of the main text. […]
# (§4) pol30-Rad30E2 WT WT WT WT WT WT - pol30-Rad30E9 WT WT WT WT WT WT WT pol30-Rad27E6 WT WT WT WT + WT WT pol30-Rad27E31 WT WT WT WT + WT WT pol30-Rad27L1 WT -- WT WT -- WT WT pol30-Rad27L2 WT -- WT WT -- WT WT pol30-Pol32E5 WT WT WT WT WT WT WT pol30-Pol32E9 - WT WT WT WT WT WT pol30-Msh6E2 WT WT + WT WT WT WT pol30-Msh6E6 WT WT ++ WT WT WT WT pol30-Ung1E3 WT - WT WT WT WT WT pol30-79 --- --- --- - --- --- --- a PCNA mutants with enhanced affinities for the different target partners (see Table 1, text). b PCNA mutants were fused to the activating domain (AD), while the different partners were fused to the DNA-binding domain (BD). The growth of the resulting Y2H strains was compared to the growth of the WT PCNA-expressing strain following spotting onto selective agar plates (see Material and Methods). Growth rates on the agar plates were scored and tabulated as follows: ++ major increase in growth; + moderate increase in growth; WT-similar growth as the WT PCNA-expressing cells; - minor decrease in growth; -- moderate decrease in growth; --- major decrease in growth. ND-Not determined.
# Cac1 = assay: as above; assay type: binding; set-up: key: ++: major increase in growth; +: moderate increase in growth; similar growth as the WT PCNA-expressing cells; -: minor decrease in growth; --: moderate decrease in growth; ---: major decrease in growth; settings: spotting onto selective agar plates; PCNA fused to AD, partner to BD
# Procedure: as §2, §3, §4
# Cdc9 = assay: as above; assay type: binding; set-up: key: ++: major increase in growth; +: moderate increase in growth; similar growth as the WT PCNA-expressing cells; -: minor decrease in growth; --: moderate decrease in growth; ---: major decrease in growth; settings: spotting onto selective agar plates; PCNA fused to AD, partner to BD
# Procedure: as §2, §3, §4
# Eco1 = assay: as above; assay type: binding; set-up: key: ++: major increase in growth; +: moderate increase in growth; similar growth as the WT PCNA-expressing cells; -: minor decrease in growth; --: moderate decrease in growth; ---: major decrease in growth; settings: spotting onto selective agar plates; PCNA fused to AD, partner to BD
# Procedure: as §2, §3, §4
# Msh3 = assay: as above; assay type: binding; set-up: key: ++: major increase in growth; +: moderate increase in growth; similar growth as the WT PCNA-expressing cells; -: minor decrease in growth; --: moderate decrease in growth; ---: major decrease in growth; settings: spotting onto selective agar plates; PCNA fused to AD, partner to BD
# Procedure: as §2, §3, §4
# Rfc1 = assay: as above; assay type: binding; set-up: key: ++: major increase in growth; +: moderate increase in growth; similar growth as the WT PCNA-expressing cells; -: minor decrease in growth; --: moderate decrease in growth; ---: major decrease in growth; settings: spotting onto selective agar plates; PCNA fused to AD, partner to BD
# Procedure: as §2, §3, §4
# Rrm3 = assay: as above; assay type: binding; set-up: key: ++: major increase in growth; +: moderate increase in growth; similar growth as the WT PCNA-expressing cells; -: minor decrease in growth; --: moderate decrease in growth; ---: major decrease in growth; settings: spotting onto selective agar plates; PCNA fused to AD, partner to BD
# Procedure: as §2, §3, §4
# yeast strains = assay: Viability of haploid strains with mutant as sole source of PCNA (plasmid shuffling, 5FOA); assay type: cell-based; settings: for viability of strain containing the mutant as the sole source of PCNA: plasmid shuffling, selection on 5FOA; for effect of rad27 deletion on lethality of the mutant strain: rad27-deleted background, 5-FOA
# Source text: To study the in vivo ability of PCNA mutants to promote DNA replication and repair in yeast, we adopted a plasmid shuffling method to create haploid yeast strains carrying each mutant as the sole source of PCNA (see Materials and Methods). This approach allowed us to identify PCNA mutants leading to cell death, indicating their inability to support essential DNA replication processes (Figure 5A). […] To verify that the replication defects in the mutant strains (Figure 5) are not due to reduced expression levels of the PCNA proteins, we confirmed the expression level of PCNA using western blot analysis and observed similar expression levels of all PCNA mutants, relative to WT PCNA (Figure S7).
# Figure 5 In vivo phenotypic analysis of PCNA mutants. (A) Non-viable strains containing PCNA mutants with increased binding affinity for Rad27 as the sole version of PCNA. Yeast strains containing WT PCNA expressed from a URA3 plasmid and mutant PCNA genes expressed from a LEU2 plasmid are viable (middle). Upon selection for loss of WT PCNA using 5-floororotic acid (5FOA), PCNA mutant strains are non-viable (right). (B) MMS (middle) and HU (right) sensitivity of strains containing PCNA mutants with increased binding affinity for Rad27, Pol32, Rad30, Msh6, and Ung1 and strains containing WT PCNA in which the same partners were deleted. For binding characterization and sequences of the mutants, see Table 1.
# Novel haploids containing PCNA mutants were generated using the plasmid shuffling method. Briefly, a pol30::KanMX magic marker heterozygote diploid strain BY4743 (Open Biosystem) was transformed with plasmid pRS316-POL30. Following dissection of the diploid, a haploid containing the CAN+ gene and plasmid pRS316-POL30 as a sole source of PCNA was generated. This host strain was transformed with selected pRS315-pol30 mutants, plated on SC-Ura-Leu plates, followed by replica plating to SC-Leu+5FOA plates. Haploids, containing PCNA mutants as a sole source, were further verified by plating on either SC-Leu or SC-Ura plates. For testing selected PCNA mutants, a haploid containing rad27::HYG, rad30::HYG, pol32::HYG, msh6::HYG, or ung1::HYG were generated using plasmid pAG32 by conventional genetic approaches. Growth of the PCNA mutant strains in the presence of 120 mM HU (Toronto Research Chemicals) or 0.02% MMS (Sigma) was performed as described. To examine the effects of partner overexpression on pol30 mutant strains, these strains were transformed with various plasmids containing GST-tagged PCNA partner encoding genes under the control of a GAL1/10 inducible promoter, as previously described. Overnight cultures were plated in serial dilutions on SC-Ura containing either glucose or galactose with or without DNA-damaging agents, as described above.
molecule,measurement,setting,value
B1,Binding of PCNA Mutants to Target Partners: Msh6 (Y2H),Msh6,1
same,Binding of PCNA Mutants to Target Partners: Pol32 (Y2H),Pol32,1
same,"Binding of PCNA Mutants to Target Partners: Rad27, fold increase or decrease (quantitative Y2H)",Rad27,1.5 ^c fold
same,Binding of PCNA Mutants to Target Partners: Rad30 (Y2H),Rad30,1
same,Binding of PCNA Mutants to Target Partners: Ung1 (Y2H),Ung1,1
same,Y2H growth relative to WT PCNA-expressing strain: Apn2,Apn2,WT
same,Y2H growth relative to WT PCNA-expressing strain: Cac1,Cac1,+
same,Y2H growth relative to WT PCNA-expressing strain: Cdc9,Cdc9,WT
same,Y2H growth relative to WT PCNA-expressing strain: Eco1,Eco1,WT
same,Y2H growth relative to WT PCNA-expressing strain: Msh3,Msh3,WT
same,Y2H growth relative to WT PCNA-expressing strain: Rfc1,Rfc1,WT
same,Y2H growth relative to WT PCNA-expressing strain: Rrm3,Rrm3,WT
B2,Binding of PCNA Mutants to Target Partners: Msh6 (Y2H),Msh6,1
same,Binding of PCNA Mutants to Target Partners: Pol32 (Y2H),Pol32,1
same,"Binding of PCNA Mutants to Target Partners: Rad27, fold increase or decrease (quantitative Y2H)",Rad27,1.7 ^c fold
same,Binding of PCNA Mutants to Target Partners: Ung1 (Y2H),Ung1,1
same,Y2H growth relative to WT PCNA-expressing strain: Apn2,Apn2,WT
same,Y2H growth relative to WT PCNA-expressing strain: Cac1,Cac1,--
same,Y2H growth relative to WT PCNA-expressing strain: Cdc9,Cdc9,WT
same,Y2H growth relative to WT PCNA-expressing strain: Eco1,Eco1,--
same,Y2H growth relative to WT PCNA-expressing strain: Msh3,Msh3,WT
same,Y2H growth relative to WT PCNA-expressing strain: Rfc1,Rfc1,WT
same,Y2H growth relative to WT PCNA-expressing strain: Rrm3,Rrm3,WT
same,viability of strain containing the mutant as the sole source of PCNA,yeast strains,lethality
same,effect of rad27 deletion on lethality of the mutant strain,yeast strains,suppressed the lethality
B3,Binding of PCNA Mutants to Target Partners: Msh6 (Y2H),Msh6,1
same,Binding of PCNA Mutants to Target Partners: Pol32 (Y2H),Pol32,1
same,"Binding of PCNA Mutants to Target Partners: Rad27, fold increase or decrease (quantitative Y2H)",Rad27,1.5 ^c fold
same,Binding of PCNA Mutants to Target Partners: Ung1 (Y2H),Ung1,1
same,Y2H growth relative to WT PCNA-expressing strain: Apn2,Apn2,WT
same,Y2H growth relative to WT PCNA-expressing strain: Cac1,Cac1,--
same,Y2H growth relative to WT PCNA-expressing strain: Cdc9,Cdc9,WT
same,Y2H growth relative to WT PCNA-expressing strain: Eco1,Eco1,--
same,Y2H growth relative to WT PCNA-expressing strain: Msh3,Msh3,WT
same,Y2H growth relative to WT PCNA-expressing strain: Rfc1,Rfc1,WT
same,Y2H growth relative to WT PCNA-expressing strain: Rrm3,Rrm3,WT
same,viability of strain containing the mutant as the sole source of PCNA,yeast strains,lethality
same,effect of rad27 deletion on lethality of the mutant strain,yeast strains,suppressed the lethality
